Patent US20220227814A1 (NEVADA RESEARCH AND INNOVATION, published 2022)
Bridge positions count the residues as written; N and C are the ends. Square brackets hold non-standard residues; d marks the D form. Ends that are not written are not given here. Dap = NC[C@H](N)C(=O)O

B1: CSP1-cyc(Dap6E10) (peptide)
peptide: EMRLSXFFREFILQRKK
modifications: Dap at position 6; side chain-to-side chain lactam between Dap6 and Glu10
B2: CSP1-cyc(K6D10) (peptide)
peptide: EMRLSKFFRDFILQRKK
modifications: lactam 6-10
B3: CSP1-cyc(Dab6E10) (peptide)
peptide: EMRLSXFFREFILQRKK
modifications: Dab at position 6; side chain-to-side chain lactam between Dab6 and Glu10
B4: CSP1-E1A-des-K16K17-cyc(Dap6E10) (peptide)
peptide: AMRLS[Dap]FFREFILQR
modifications: lactam 6-10
B5: CSP1-cyc(Orn6D10) (peptide)
peptide: EMRLSXFFRDFILQRKK
modifications: Orn (ornithine) at position 6; side chain-to-side chain lactam between Orn6 and Asp10
B6: CSP1 with Arg9 replaced with Asp (linear) (peptide)
peptide: EMRLSKFFDDFILQRKK
B7: CSP1-E1A-cyc(Dap6E10) (peptide)
peptide: AMRLS[Dap]FFREFILQRKK
modifications: lactam 6-10
B8: CSP2-E1Ad10 (peptide)
peptide: AMRISRIIL[dD]FLFLRKK
B9: CSP1 (competence stimulating peptide 1) (peptide)
peptide: EMRLSKFFRDFILQRKK
B10: CSP1-E1A (peptide)
peptide: AMRLSKFFRDFILQRKK
B11: CSP1-E1A-cyc(Dab6E10) (peptide)
peptide: AMRLSXFFREFILQRKK
modifications: Dab at position 6; side chain-to-side chain lactam between Dab6 and Glu10
B12: CSP2-d10 (peptide)
peptide: EMRISRIIL[dD]FLFLRKK
B13: CSP1-K6A (peptide)
peptide: EMRLSAFFRDFILQRKK
B14: CSP2 (competence stimulating peptide 2) (peptide)
peptide: EMRISRIILDFLFLRKK
B15: CSP1-cyc(K6D9) (peptide)
peptide: EMRLSKFFDDFILQRKK
modifications: lactam 6-9
B16: CSP1-cyc(Orn6E10) (peptide)
peptide: EMRLSXFFREFILQRKK
modifications: Orn (ornithine) at position 6; side chain-to-side chain lactam between Orn6 and Glu10
B17: CSP1-cyc(K10D14) (peptide)
peptide: EMRLSKFFRKFILDRKK
modifications: lactam 10-14
B18: CSP1-cyc(Dap6D10) (peptide)
peptide: EMRLSXFFRDFILQRKK
modifications: Dap at position 6; side chain-to-side chain lactam between Dap6 and Asp10
B19: CSP1-cyc(K6D14) (peptide)
peptide: EMRLSKFFRDFILDRKK
modifications: lactam 6-14
B20: CSP1-cyc(K6E10) (peptide)
peptide: EMRLSKFFREFILQRKK
modifications: lactam 6-10
B21: CSP1-cyc(Dab6D10) (peptide)
peptide: EMRLSXFFRDFILQRKK
modifications: Dab at position 6; side chain-to-side chain lactam between Dab6 and Asp10

Each binder was assayed against T1, ComD1 receptor (Streptococcus pneumoniae) (assay: cell-based or functional assay).

Binder	fold potency compared to CSP1-cyc(Orn6D10) [fold]	maximal induction of comX compared to CSP1 [%]	fold inhibition potency compared to CSP1-E1A-cyc(Dap6E10) [fold]	fold reduction in potency against CSP1 [fold]
B1	10	100	–	–
B2	–	44	–	–
B3	10	100	–	–
B4	–	–	~10	–
B5	–	100	–	–
B6	–	–	–	> 100

Each binder was assayed against T2, ComD2 receptor (Streptococcus pneumoniae) (assay: cell-based or functional assay).

Binder	fold potency compared to CSP2 [fold]	fold inhibition potency compared to CSP1-E1A-cyc(Dap6E10) [fold]	fold inhibition potency compared to CSP2-E1Ad10 [fold]	fold decrease in fold potency compared to CSP1-cyc(Dab6E10) and CSP1-cyc(Dap6E10) [fold]
B1	~4	–	–	–
B4	–	3	–	–
B7	–	–	3	–
B5	–	–	–	> 30

Molecular target: T1, ComD1 receptor
Assay: cell-based or functional assay
Remark: another data set of the same source

Binder	EC50/IC50 (kind not distinguishable; β-gal reporter) [nM]	EC50 (ComD1 EC50/IC50; β-gal reporter) [nM]	IC50 (ComD1 EC50/IC50; β-gal reporter) [nM]
B8	> 1000	–	–
B9	–	10.3	–
B10	–	–	85.7
B11	–	–	173
B4	–	–	7.57
B7	–	–	75.8
B12	–	513	–
B13	–	51	–
B14	–	1650	–

Molecular target: T2, ComD2 receptor
Assay: cell-based or functional assay
Remark: another data set of the same source

Binder	IC50 (ComD2 EC50/IC50; β-gal reporter) [nM]	EC50/IC50 (kind not distinguishable; β-gal reporter) [nM]	EC50 (ComD2 EC50/IC50; β-gal reporter) [nM]
B8	56.5	–	–
B10	–	> 10000	–
B11	–	> 1000	–
B4	67.2	–	–
B7	182	–	–
B12	–	–	2.86
B13	–	–	24
B14	–	–	50.7

Molecular target: T1, ComD1 receptor
Assay: cell-based or functional assay
Remark: another data set of the same source

Binder	EC50 (reporter strain) [nM]	IC50 (reporter strain) [nM]
B15	> 1000	–
B1	14.6	–
B9	10.3	–
B2	258	–
B16	422	–
B17	257	–
B11	–	173
B18	435	–
B3	12.2	–
B4	–	7.57
B7	–	75.8
B5	193	–
B19	> 1000	–
B20	350	–
B21	59.5	–
B14	1650	–

Molecular target: T2, ComD2 receptor
Assay: cell-based or functional assay
Remark: another data set of the same source

Binder	EC50 (reporter strain) [nM]	EC50/IC50 (kind not distinguishable; reporter strain) [nM]	IC50 (reporter strain) [nM]
B15	528	–	–
B1	13.1	–	–
B16	> 1000	–	–
B11	–	> 1000	–
B18	> 1000	–	–
B3	31.4	–	–
B4	–	–	67.2
B7	–	–	182
B5	> 1000	–	–
B19	> 1000	–	–
B20	> 1000	–	–
B21	> 1000	–	–
B14	50.7	–	–
